Assay [1] addresses T1, human GLP-1 receptor (human, UniProt P43220 24-463).
T1 construct: whole, on cells; Used as purified membranes of the transfected hamster cells, not whole cells; also called hGLP-1
Description: SPA, 2.0% vs 0.005% HSA.

In assay [2] the target is T1, human GLP-1 receptor. The experiment in a line: SPA, displacement of 125I-GLP-1(7-36)NH2, 0.005% HSA. In general terms: In a radioligand displacement assay an active substance lowers the binding of a labelled ligand.

*1 amine or outer side, *2 acyl side, *3 side chain or, on linkers, in order; H or OH if unused. Where no end group is shown, it is not given here. Side-chain parts run from the residue outwards. [ ]: non-standard residue; d: D form. The star is where a group is joined. 8‑(4-carboxyphenoxy)octanoyl = O=C(O)c1ccc(OCCCCCCCC(=O)*)cc1; Decanoyl(10-(4-HOOC-PhO)) = O=C(O)c1ccc(OCCCCCCCCCC(=O)*)cc1; C18 diacid = O=C(O)CCCCCCCCCCCCCCCCC(=O)*; γGlu = O=C(O)[C@H](CCC(=O)[*:2])N[*:1]; Desaminohistidyl = O=C(CCc1c[nH]cn1)*; C12 diacid = O=C(O)CCCCCCCCCCC(=O)*; 13‑carboxytridecanoyl = C14 diacid; AEEA = NCCOCCOCC(=O)O; Aib = CC(C)(N)C(=O)O Where only a bound is given, the exact number is not on record here.

B1: GLP-1 derivative of Example 23: [Aib8,Lys18,Glu22,Gln34]-GLP-1-(7-37)-peptide (peptide)
peptide: H[Aib]EGTFTSDVSK([AEEA-AEEA-γGlu-C18 diacid])YLEEQAAK([AEEA-AEEA-γGlu-C18 diacid])EFIAWLVQGRG
B1: in the assay with human GLP-1 receptor [1], the “ratio IC50 high HSA/IC50 low HSA” value is above 1. The IC50 (commonly the midpoint of a concentration-inhibition curve) with human GLP-1 receptor [2] is below 1000 nM.

B2: GLP-1 derivative of Example 31: [Imp7,Lys18,Glu22,Arg26,Lys27,His31,Gly34]-GLP-1-(7-34)-peptide (peptide)
peptide: [Desaminohistidyl]AEGTFTSDVSK([AEEA-AEEA-13‑carboxytridecanoyl])YLEEQAARK([AEEA-AEEA-13‑carboxytridecanoyl])FIAHLVG
For the molecule B2, in the assay with human GLP-1 receptor [1], the “ratio IC50 high HSA/IC50 low HSA” value was above 1. The molecule also gave an IC50 with human GLP-1 receptor [2] below 1000 nM.

B3: GLP-1 derivative of Example 84: [Aib8,Lys18,Glu22,Gln34]-GLP-1-(7-37)-peptide (peptide)
peptide: H[Aib]EGTFTSDVSK([AEEA-AEEA-13‑carboxytridecanoyl])YLEEQAAK([AEEA-AEEA-13‑carboxytridecanoyl])EFIAWLVQGRG
For the molecule B3, the “ratio IC50 high HSA/IC50 low HSA” value with human GLP-1 receptor [1] is above 1. The molecule further came in with a half-maximal inhibitory concentration (IC50) with human GLP-1 receptor [2] below 1000 nM.

B4: GLP-1 derivative of Example 86: [Aib8,Lys18,Glu22,Gln34]-GLP-1-(7-37)-peptide (peptide)
peptide: H[Aib]EGTFTSDVSK([AEEA-γGlu-AEEA-13‑carboxytridecanoyl])YLEEQAAK([AEEA-γGlu-AEEA-13‑carboxytridecanoyl])EFIAWLVQGRG
With B4, in the assay with human GLP-1 receptor [1], the “ratio IC50 high HSA/IC50 low HSA” value is above 1. The same molecule displayed an IC50 with human GLP-1 receptor [2] below 1000 nM.

B5: GLP-1 derivative of Example 37: [Aib8,Lys18,Glu22,Val25,Arg26,Lys31]-GLP-1-(7-33)-peptide amide (peptide)
peptide: H[Aib]EGTFTSDVSK([AEEA-AEEA-γGlu-13‑carboxytridecanoyl])YLEEQAVREFIAK([AEEA-AEEA-γGlu-13‑carboxytridecanoyl])LV-NH2
notes: Second site printed without its number (N^ε-)
Consider B5, for which the “ratio IC50 high HSA/IC50 low HSA” value with human GLP-1 receptor [1] was above 1. In the assay with human GLP-1 receptor [2], this molecule returned an IC50 below 1000 nM.

B6: GLP-1 derivative of Example 82: [Aib8,Lys18,Glu22,Gln34]-GLP-1-(7-37)-peptide (peptide)
peptide: H[Aib]EGTFTSDVSK([γGlu-AEEA-AEEA-Decanoyl(10-(4-HOOC-PhO))])YLEEQAAK([γGlu-AEEA-AEEA-Decanoyl(10-(4-HOOC-PhO))])EFIAWLVQGRG
For the molecule B6, in the assay with human GLP-1 receptor [1], the “ratio IC50 high HSA/IC50 low HSA” value was above 1. In addition, in the assay with human GLP-1 receptor [2], the IC50 was below 1000 nM.

B7: GLP-1 derivative of Example 33: [Imp7,Lys18,Glu22,Arg26,Lys27,His31,Gly34]-GLP-1-(7-34)-peptide (peptide)
peptide: [Desaminohistidyl]AEGTFTSDVSK([AEEA-AEEA-γGlu-Decanoyl(10-(4-HOOC-PhO))])YLEEQAARK([AEEA-AEEA-γGlu-Decanoyl(10-(4-HOOC-PhO))])FIAHLVG
Regarding B7, the “ratio IC50 high HSA/IC50 low HSA” value with human GLP-1 receptor [1] is above 1. This molecule had an IC50 with human GLP-1 receptor [2] below 1000 nM.

B8: GLP-1 derivative of Example 39: [Aib8,Lys18,Glu22,Gln34]-GLP-1-(7-37)-peptide (peptide)
peptide: H[Aib]EGTFTSDVSK([AEEA-AEEA-γGlu-C12 diacid])YLEEQAAK([AEEA-AEEA-γGlu-C12 diacid])EFIAWLVQGRG
B8: in the assay with human GLP-1 receptor [1], the “ratio IC50 high HSA/IC50 low HSA” value was above 1. In the assay with human GLP-1 receptor [2], this molecule came in with an IC50 below 1000 nM.

B9: GLP-1 derivative of Example 65: [Aib8,Lys18,Glu22,Gln34]-GLP-1-(7-37)-peptide (peptide)
peptide: H[Aib]EGTFTSDVSK([γGlu-AEEA-AEEA-13‑carboxytridecanoyl])YLEEQAAK([γGlu-AEEA-AEEA-13‑carboxytridecanoyl])EFIAWLVQGRG
Take B9: the “ratio IC50 high HSA/IC50 low HSA” value with human GLP-1 receptor [1] is above 1. This molecule showed an IC50 with human GLP-1 receptor [2] below 1000 nM.

B10: GLP-1 derivative of Example 87: [Aib8,Lys18,Glu22,Gln34]-GLP-1-(7-37)-peptide (peptide)
peptide: H[Aib]EGTFTSDVSK([AEEA-AEEA-γGlu-8‑(4-carboxyphenoxy)octanoyl])YLEEQAAK([AEEA-AEEA-γGlu-8‑(4-carboxyphenoxy)octanoyl])EFIAWLVQGRG
In the case of B10, in the assay with human GLP-1 receptor [1], the “ratio IC50 high HSA/IC50 low HSA” value was above 1. Besides, the IC50 with human GLP-1 receptor [2] was below 1000 nM.

B11: GLP-1 derivative of Example 71: [Aib8,Lys18,Glu22,Gln34]-GLP-1-(7-37)-peptide (peptide)
peptide: H[Aib]EGTFTSDVSK([AEEA-AEEA-AEEA-AEEA-Decanoyl(10-(4-HOOC-PhO))])YLEEQAAK([AEEA-AEEA-AEEA-AEEA-Decanoyl(10-(4-HOOC-PhO))])EFIAWLVQGRG
Take B11: the “ratio IC50 high HSA/IC50 low HSA” value with human GLP-1 receptor [1] is above 1. For the same molecule, the IC50 with human GLP-1 receptor [2] is below 1000 nM.

B12: GLP-1 derivative of Example 80: [Aib8,Lys18,Glu22,Gln34]-GLP-1-(7-37)-peptide (peptide)
peptide: H[Aib]EGTFTSDVSK([AEEA-AEEA-γGlu-13‑carboxytridecanoyl])YLEEQAAK([AEEA-AEEA-γGlu-13‑carboxytridecanoyl])EFIAWLVQGRG
As for B12, in the assay with human GLP-1 receptor [1], the “ratio IC50 high HSA/IC50 low HSA” value is above 1. Besides, the IC50 in the assay with human GLP-1 receptor [2] is below 1000 nM.

B13: GLP-1 derivative of Example 63: [Aib8,Lys18,Glu22,Val25,Arg26,Leu27]-GLP-1-(7-34)-peptide (peptide)
peptide: H[Aib]EGTFTSDVSK([AEEA-AEEA-γGlu-13‑carboxytridecanoyl])YLEEQAVRLFIAWLVK([AEEA-AEEA-γGlu-13‑carboxytridecanoyl])
Consider B13, for which, in the assay with human GLP-1 receptor [1], the “ratio IC50 high HSA/IC50 low HSA” value is above 1. Further, the IC50 with human GLP-1 receptor [2] is below 1000 nM.

B14: GLP-1 derivative of Example 79: [Aib8,Lys18,Glu22,Gln34]-GLP-1-(7-37)-peptide (peptide)
peptide: H[Aib]EGTFTSDVSK([AEEA-AEEA-γGlu-2‑phenylcyclopropanecarbonyl])YLEEQAAK([AEEA-AEEA-γGlu-2‑phenylcyclopropanecarbonyl])EFIAWLVQGRG
B14: in the assay with human GLP-1 receptor [1], the “ratio IC50 high HSA/IC50 low HSA” value is above 1. The same molecule showed an IC50 in the assay with human GLP-1 receptor [2] below 1000 nM.

B15: GLP-1 derivative of Example 69: [Aib8,Lys18,Glu22,Gln34]-GLP-1-(7-37)-peptide (peptide)
peptide: H[Aib]EGTFTSDVSK([AEEA-AEEA-AEEA-AEEA-γGlu-Decanoyl(10-(4-HOOC-PhO))])YLEEQAAK([AEEA-AEEA-AEEA-AEEA-γGlu-Decanoyl(10-(4-HOOC-PhO))])EFIAWLVQGRG
B15: the “ratio IC50 high HSA/IC50 low HSA” value in the assay with human GLP-1 receptor [1] was above 1. Further, the IC50 with human GLP-1 receptor [2] was below 1000 nM.

B16: GLP-1 derivative of Example 32: [Imp7,Lys18,Glu22,Arg26,Lys27,His31,Gly34]-GLP-1-(7-34)-peptide (peptide)
peptide: [Desaminohistidyl]AEGTFTSDVSK([γGlu-AEEA-AEEA-13‑carboxytridecanoyl])YLEEQAARK([γGlu-AEEA-AEEA-13‑carboxytridecanoyl])FIAHLVG
In the case of B16, in the assay with human GLP-1 receptor [1], the “ratio IC50 high HSA/IC50 low HSA” value was above 1. Moreover, the IC50 in the assay with human GLP-1 receptor [2] was below 1000 nM.

B17: GLP-1 derivative of Example 22: [Imp7,Aib8,Lys18,Glu22,Val25,Arg26,Lys31,Gly34]-GLP-1-(7-34)-peptide (peptide)
peptide: [Desaminohistidyl][Aib]EGTFTSDVSK([AEEA-AEEA-γGlu-C12 diacid])YLEEQAVREFIAK([AEEA-AEEA-γGlu-C12 diacid])LVG
Consider B17, for which, in the assay with human GLP-1 receptor [1], the “ratio IC50 high HSA/IC50 low HSA” value was above 1. In the assay with human GLP-1 receptor [2], the IC50 is below 1000 nM.

B18: GLP-1 derivative of Example 36: [Aib8,Lys18,Glu22,Val25,Arg26,Lys31,Gly34]-GLP-1-(7-34)-peptide (peptide)
peptide: H[Aib]EGTFTSDVSK([γGlu-AEEA-AEEA-13‑carboxytridecanoyl])YLEEQAVREFIAK([γGlu-AEEA-AEEA-13‑carboxytridecanoyl])LVG
Regarding B18, the “ratio IC50 high HSA/IC50 low HSA” value in the assay with human GLP-1 receptor [1] is above 1. The molecule further came in with an IC50 with human GLP-1 receptor [2] below 1000 nM.

B19: GLP-1 derivative of Example 90: [Aib8,Lys18,Glu22,Gln34]-GLP-1-(7-37)-peptide (peptide)
peptide: H[Aib]EGTFTSDVSK([AEEA-γGlu-AEEA-Decanoyl(10-(4-HOOC-PhO))])YLEEQAAK([AEEA-γGlu-AEEA-Decanoyl(10-(4-HOOC-PhO))])EFIAWLVQGRG
With B19, the “ratio IC50 high HSA/IC50 low HSA” value in the assay with human GLP-1 receptor [1] was above 1. Moreover, the IC50 in the assay with human GLP-1 receptor [2] was below 1000 nM.

B20: GLP-1 derivative of Example 21: [Imp7,Aib8,Lys18,Glu22,Val25,Arg26,Lys31,Gly34]-GLP-1-(7-34)-peptide (peptide)
peptide: [Desaminohistidyl][Aib]EGTFTSDVSK([AEEA-AEEA-γGlu-13‑carboxytridecanoyl])YLEEQAVREFIAK([AEEA-AEEA-γGlu-13‑carboxytridecanoyl])LVG
As for B20, in the assay with human GLP-1 receptor [1], the “ratio IC50 high HSA/IC50 low HSA” value is above 1. This molecule yielded an IC50 in the assay with human GLP-1 receptor [2] below 1000 nM.

B21: GLP-1 derivative of Example 85: [Aib8,Lys18,Glu22,Lys26,Gln34]-GLP-1-(7-37)-peptide (peptide)
peptide: H[Aib]EGTFTSDVSK([AEEA-AEEA-Decanoyl(10-(4-HOOC-PhO))])YLEEQAAK([AEEA-AEEA-Decanoyl(10-(4-HOOC-PhO))])EFIAWLVQGRG
For B21, the “ratio IC50 high HSA/IC50 low HSA” value with human GLP-1 receptor [1] was above 1. The IC50 with human GLP-1 receptor [2] is below 1000 nM.

Source of the values: patent US9708383 (Novo Nordisk, dated 2017).
